Test results taken from patent US20220325265A1, “GLUCOCEREBROSIDASE MUTANTS” (Hoffmann-la Roche Inc., priority 2019, published 2022).
Residue numbers refer to the chain shown, from its start. Names and notes keep the numbering of the source.

B1: R495HS2: hGCase based on the Cerezyme sequence (R495H) but produced in S2 cells, His8-tagged; Seq. Id. No. 1 (protein, listed as Homo sapiens)
chain: ARPCIPKSFGYSSVVCVCNATYCDSFDPPTFPALGTFSRYESTRSGRRMELSMGPIQANHTGTGLLLTLQPEQKFQKVKGFGGAMTDAAALNILALSPPAQNLLLKSYFSEEGIGYNIIRVPMASCDFSIRTYTYADTPDDFQLHNFSLPEEDTKLKIPLIHRALQLAQRPVSLLASPWTSPTWLKTNGAVNGKGSLKGQPGDIYHQTWARYFVKFLDAYAEHKLQFWAVTAENEPSAGLLSGYPFQCLGFTPEHQRDFIARDLGPTLANSTHHNVRLLMLDDQRLLLPHWAKVVLTDPEAAKYVHGIAVHWYLDFLAPAKATLGETHRLFPNTMLFASEACVGSKFWEQSVRLGSWDRGMQYSHSIITNLLYHVVGWTDWNLALNPEGGPNWVRNFVDSPIIVDITKDTFYKQPMFYHLGHFSKFIPEGSQRVGLVASQKNDLDAVALMHPDGSAVVVVLNRSSKDVPLTIKDPAVGFLETISPGYSIHTYLWHRQ
modifications: His8 tag
B2: K321N/H145L: Amicus double mutant hGCase R495H/K321N/H145L produced in S2 cells; Seq. Id. No. 3 (protein, listed as Homo sapiens)
chain: B1 chain with H145L, K321N
notes: Amicus double mutant hGCase R495H/K321N/H145L produced in S2 cells; Id; No. 3
B3: I5N: recombinant human β-glucocerebrosidase variant R495H/I5N, S2 cells; Seq. Id. No. 4 (protein, listed as Homo sapiens)
chain: B1 chain with I5N
notes: recombinant human β-glucocerebrosidase variant R495H/I5N, S2 cells; Id; No. 4
B4: imiglucerase (protein, UniProt P04062 40-536, looked up, variant R495H)
Lysosomal acid …: B1 chain
modifications: imiglucerase; CHO-produced
notes: Commercially available Cerezyme (imiglucerase, Genzyme), hGCase R495H produced in CHO cells
B5: M53T/P55T: recombinant human β-glucocerebrosidase variant R495H/M53T/P55T, S2 cells; Seq. Id. No. 7 (protein, listed as Homo sapiens)
chain: B1 chain with M53T, P55T
notes: recombinant human β-glucocerebrosidase variant R495H/M53T/P55T, S2 cells; Id; No. 7

Assays:
[1] = Activatability of hGCase mutants by phosphatidylserine; format: biochemical; details: 25 nM protein; for phosphatidylserine activation, fold increase of initial activity: 4 μM phosphatidylserine, 10 min pre-incubation at RT
Experimental: Negatively charged lipids as phosphatidylserine are known to stabilize and activate the enzyme usually in combination with Saposin C (SAP-2), since GCase is naturally interacting with the membrane of the lysosomes in vivo. For the assay, 25 nM protein and 4 μM phosphatidylserine (Avanti; 10 mM stock solution dissolved in chloroform) were tested.
After adding the lipid to the enzyme, the solution was pre-incubated for 10 min at RT before adding the substrate and initializing the enzymatic reaction. The hGCase activity without added phosphatidylserine was set to 100% relative enzyme activity. The increase in activity was expressed as X-fold the initial activity without activator.
Several physiological substances have been reported to stimulate the activity of glucocerebrosidase. GCase is naturally interacting with the membrane of the lysosomes in vivo, thus negatively charged lipids such as phosphatidylserine are known to stabilize and activate the enzyme alone or in combination with Saposin C (SAP-2) (Qi & Grabowski, 1998; Sun et al., 2002; Vaccaro et al., 1995). Thus, it is essential to preserve these properties when modifying the GCase enzyme structure. To this end, the effect of phosphatidylserine alone was evaluated as first approach. The activity levels with and without added phosphatidylserine are plotted in FIG. 6.
By translating the data into fold increase of the initial activity, a more conclusive statement can be drawn (FIG. 7).

[2] = tested on: H4 glioblastoma GBA-KO cells; experiment: Reduction of natural substrate GlcSph in H4 GBA-KO cells (LC/MS); format: cell-based, human; details: 48 h, vs untreated H4 GBA-KO cells
Experimental: FIG. 9: Reduction of the natural substrate GlcSph after treatment of H4 glioblastoma GBA-KO cells with hGCase molecules. Treatment concentration (hGCase protein): 1, 10 and 100 nM, respectively. Analysis of substrate levels after 48 h of incubation via LC/MS. H4 wt cells (GCase levels normalized to 100%) and H4 GBA-KO cells (loss of GBA gene) served as control. ^1 measured glucosylsphingosine (GlcSph) levels normalized to total protein amount. ^2 H4 glioblastoma cells with knock-out GBA gene.
(§1) Human H4 glioblastoma cells (H4 cells) were taken as human neuronal model to test purified hGCase variants in a cell-based setup. H4 wild-type cells and untreated H4 GBA-KO cells (knock-out of related GCase GBA gene) were taken as references. After seeding (40000 cells/well) and incubating them for ˜24 h, the GBA-KO cells were treated with 1, 10 and 100 nM of target protein sample and incubated for either 2 h (for uptake and GCase activity measurements) or 48 h (for substrate reduction measurements) at 37° C. with 5% CO2 and constant humidity. After cell-lysis (GCase activity buffer (table 2.6)+0.1% (w/v) Triton X-100+phosphatase (Phospho stop Roche in-house)+protease inhibitor (cOmplete EDTA-free)), the uptake of the enzymes into the cells was evaluated by measuring the hGCase concentration via AlphaLISA (section 2.3.6) as well as the activity after the uptake (section 2.3.5). Samples for substrate reduction determination were hand over to Iris Ruf (SMR, see section 2.7). Due to the loss of the GCase related GBA gene in H4 GBA-KO cells, the natural substrate glucosylsphingosine (GlcSph) accumulates. The reduction of GlcSph levels due to hGCase treatment was evaluated via LC/MS by Iris Ruf (SMR).
(§2) Finally, the cellular uptake, activity and substrate reduction in human neuronal cells were determined to test the mutants' efficacy in a more cellular context. In this work, human H4 glioblastoma wild-type cells (wt) and H4 GBA-KO cells (knock-out of GCase related GBA gene) were used as a Gaucher cell model. H4 GBA-KO cells, which accumulate the natural substrate glucosylsphingosine (GlcSph) due to the loss of the GBA gene, were treated with 1, 10 and 100 nM of hGCase molecules, respectively. Activity and protein concentration (via AlphaLISA) were measured after two hours of incubation after several media wash steps. The reduction of natural substrate GlcSph was analyzed 48 h after cell treatment via LC/MS. The activity measured after uptake into the cells normalized to measured hGCase protein levels is graphed in FIG. 8. The evaluated activities are given as percentage of hGCase activity measured in wt H4 cells, set to 100%.
To determine the enzymes' efficacies, the reduction of accumulated glucosylsphingosine (GlcSph) in H4 GBA-KO cells was investigated.

[3] = tested on: H4 glioblastoma GBA-KO cells; experiment: GCase activity after uptake into H4 GBA-KO cells, normalized to hGCase protein level; format: cell-based, human; details: 2 h incubation
Experimental: FIG. 8: Activity levels normalized to hGCase protein levels measured after treatment of H4 glioblastoma GBA-KO cells with hGCase molecules. Treatment concentration (hGCase protein): 1, 10 and 100 nM (100 nM not shown herein), respectively. Activity and protein amount measurement after 2 h of incubation. Activity measured with artificial substrate res-β-glc (20 μM); protein concentration determination via AlphaLISA (section 2.3.6). H4 wt cells (GCase levels normalized to 100%) and H4 GBA-KO cells (loss of GBA gene) served as control. ^1 GCase activity measured in H4 cells normalized to activity measured in H4 (wt) cells designated to 100% and normalized to protein amount. ^2 H4 glioblastoma cells with knock-out GBA gene.
as §1
as §2, with “H4 GBA-KO cells, which accumulate the natural substrate glucosylsphingosine (GlcSph) due to the loss of the GBA gene, were treated with 1, 10 and 100 nM of hGCase molecules, respectively.” left out

Molecule | phosphatidylserine activation, fold increase of initial activity [1] | reduction in GlcSph levels (%) ([2]; 10 nM treatment) | reduction in GlcSph levels (fold) ([2]; 10 nM treatment) | basal activity level (no added lipid) ([1]; no phosphatidylserine) | GCase activity level normalized to H4 wt GCase activity (100%) and protein amount ([3]; 1 nM protein treatment) | GCase activity level normalized to H4 wt GCase activity (100%) and protein amount ([3]; 10 nM protein treatment) | reduction in GlcSph levels (%) ([2]; 1 nM treatment)
B1 | 4.9 fold | ~75% | 4 fold |  |  |  | 
B2 | ~2.8 fold |  |  |  |  |  | 
B3 | 7.5 fold | ~75% | 4 fold | least basal activity level |  |  | 
B4 | 11.5 fold | 97% |  |  | 4% | 44% | 82%
B5 | 6.5 fold | ~88% | 8.3 fold |  | ~4% | 26% | 
